From paper PMC2112703

Biological target: rabbit skeletal muscle actin (rabbit), P68135
Test: cross-linking
Conditions: remark: other sources report otherwise

B1: depactin (actin-depolymerizing protein from starfish oocytes), P20690 1-150 (natural protein)
chain: PQSGTALDENVKEEIRAFKMDQSKVKVPWMLLEIVQNDDRIDVVKVTKKAGPSDNLETLREELKQREVVYFVLDYEPSEEKRAKHNIPKGKTYPLTCFWSMETANIKLKMKYSSTVGTLKSATSTLKTYLEAHDFDDLSEEAIGDKIKNF
stoichiometry N: 1
